This is an account of results in article PMC11497264, “SARS‐CoV‐2 Spike Protein‐Derived Cyclic Peptides as Modulators of Spike Interaction with GRP78” (Chembiochem, 2024).

The term IC50 denotes the midpoint of a concentration-inhibition curve. A higher IC50 goes with weaker potency. For orientation: Kd means the equilibrium constant for the complex coming apart.

The experiment concerns the target T1, human glucose-regulated protein GRP78 (human, UniProt P11021 19-654).
T1 construct: also called heat shock protein A5; HSPA5; source: Escherichia coli, recombinant; bought: Abcam
Description: SPR. The settings on record: both partners purified.

Bridge positions count the residues as written; N and C are the ends.

T1 sequence (P11021 19-654): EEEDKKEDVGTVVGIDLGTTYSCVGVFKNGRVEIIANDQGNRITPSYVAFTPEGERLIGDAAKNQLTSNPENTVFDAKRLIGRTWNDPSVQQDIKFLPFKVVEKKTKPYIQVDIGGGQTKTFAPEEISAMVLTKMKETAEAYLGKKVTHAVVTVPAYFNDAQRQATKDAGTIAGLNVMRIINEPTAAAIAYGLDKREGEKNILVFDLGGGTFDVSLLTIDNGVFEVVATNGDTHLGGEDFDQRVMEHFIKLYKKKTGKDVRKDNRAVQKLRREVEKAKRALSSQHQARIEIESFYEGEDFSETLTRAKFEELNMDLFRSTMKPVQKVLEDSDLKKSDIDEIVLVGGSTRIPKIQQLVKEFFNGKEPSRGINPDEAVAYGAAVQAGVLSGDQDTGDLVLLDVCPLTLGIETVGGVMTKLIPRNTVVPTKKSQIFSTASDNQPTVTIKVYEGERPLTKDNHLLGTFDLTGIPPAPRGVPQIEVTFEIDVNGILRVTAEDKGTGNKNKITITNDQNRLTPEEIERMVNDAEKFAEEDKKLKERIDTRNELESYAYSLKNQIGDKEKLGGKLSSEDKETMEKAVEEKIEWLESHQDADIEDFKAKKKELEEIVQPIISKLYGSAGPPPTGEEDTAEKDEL

B1: LCP W, loop-derived cyclic peptide based on spike residues 480-488 of the Wuhan strain (peptide)
peptide: H-CNGVEGFNC-NH2
modifications: disulfide 1-9
SMILES: CC(C)[C@@H]1NC(=O)CNC(=O)[C@H](CC(N)=O)NC(=O)[C@@H](N)CSSC[C@@H](C(N)=O)NC(=O)[C@H](CC(N)=O)NC(=O)[C@H](Cc2ccccc2)NC(=O)CNC(=O)[C@H](CCC(=O)O)NC1=O
notes: also called Wuhan loop peptide; Wuhan peptide
B1: the IC50 worked out at 763 nM.

B2: LCP O, loop-derived cyclic peptide based on spike residues 480-488 of the Omicron strain (peptide)
peptide: H-CNGVAGFNC-NH2
modifications: disulfide 1-9
SMILES: CC(C)[C@@H]1NC(=O)CNC(=O)[C@H](CC(N)=O)NC(=O)[C@@H](N)CSSC[C@@H](C(N)=O)NC(=O)[C@H](CC(N)=O)NC(=O)[C@H](Cc2ccccc2)NC(=O)CNC(=O)[C@H](C)NC1=O
notes: also called Omicron loop peptide; Omicron peptide
Molecule B2 showed a half-inhibitory concentration (IC50) of 693 nM and a dissociation constant Kd of 2000 nM.
